We go through seven molecules from PMC9367764, “Functional Versatility of the Human 2-Oxoadipate Dehydrogenase in the L-Lysine Degradation Pathway toward Its Non-Cognate Substrate 2-Oxopimelic Acid” (International Journal of Molecular Sciences, 2022).

Data set [1] addresses E2o 1-173 di-domain, labelled with N-(1-pyrene) maleimide (human). As to the kind of experiment: other fluorescence titration; pyrene-labelled E2o 1-173 di-domain titrated by Arg715Cys E1a; 25 °C; 100 mM HEPES (pH 7.5), 0.15 M NaCl, 1% glycerol.
The target of data set [2] is human dihydrolipoamide dehydrogenase (E3) (human) (UniProt P09622). Description: pull-down; co-purification of E1a or Arg715Cys E1a with E2o and E3 (assembly into OADHc) on immobilized metal affinity chromatography; relative amounts from band intensities in PAGE; which component was held by the resin is not stated.
Chain of human dihydrolipoamide dehydrogenase (E3) (human) (P09622 36-509): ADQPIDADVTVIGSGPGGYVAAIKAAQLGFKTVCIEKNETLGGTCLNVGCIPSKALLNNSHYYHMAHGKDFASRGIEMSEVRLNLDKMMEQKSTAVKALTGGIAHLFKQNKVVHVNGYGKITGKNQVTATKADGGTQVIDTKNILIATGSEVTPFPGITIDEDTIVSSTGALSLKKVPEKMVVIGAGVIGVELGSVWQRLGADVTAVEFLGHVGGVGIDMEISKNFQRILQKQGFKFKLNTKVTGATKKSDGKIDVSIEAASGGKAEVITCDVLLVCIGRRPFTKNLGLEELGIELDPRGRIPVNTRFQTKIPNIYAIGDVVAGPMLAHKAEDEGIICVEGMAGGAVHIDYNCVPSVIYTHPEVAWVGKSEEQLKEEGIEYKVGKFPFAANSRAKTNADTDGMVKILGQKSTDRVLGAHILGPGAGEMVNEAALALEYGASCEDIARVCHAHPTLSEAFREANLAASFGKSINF
For data set [3], the target named is human dihydrolipoamide succinyltransferase (E2o) (human) (UniProt P36957). The description is as above.
Chain of human dihydrolipoamide succinyltransferase (E2o) (human) (P36957 68-453): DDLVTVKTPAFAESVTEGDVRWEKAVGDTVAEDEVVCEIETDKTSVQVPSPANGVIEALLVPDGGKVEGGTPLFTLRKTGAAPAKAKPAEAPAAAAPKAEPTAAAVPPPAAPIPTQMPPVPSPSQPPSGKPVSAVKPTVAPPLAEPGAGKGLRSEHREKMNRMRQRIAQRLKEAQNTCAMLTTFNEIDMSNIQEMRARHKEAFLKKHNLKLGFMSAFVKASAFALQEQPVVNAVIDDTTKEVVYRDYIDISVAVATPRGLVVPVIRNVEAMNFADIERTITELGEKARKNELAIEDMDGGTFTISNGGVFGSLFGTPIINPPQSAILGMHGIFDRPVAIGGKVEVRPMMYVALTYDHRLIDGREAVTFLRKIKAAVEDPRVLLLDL
Data set [4] concerns the target E2o di-domain (linker and part of core domain) (Homo sapiens) (UniProt P36957). As to the kind of experiment: fluorescence. As to conditions: cited from earlier work.
Substrate in data set [5]: O=C(O)CCCC(=O)C(=O)O
Description: E1a-specific DCPIP reduction assay (Km, kcat). In kind it is biochemical, Homo sapiens. As to conditions: ThDP, Mg2+ active center; decarboxylated to the E1a-ThDP-enamine intermediate.

Substrate in data set [6]: O=C(O)CCCCC(=O)C(=O)O
As to the kind of experiment: E1a-specific DCPIP reduction assay (Km, kcat). As to conditions: ThDP, Mg2+ active center; decarboxylated to the E1a-ThDP-enamine intermediate. Type of data set: biochemical, Homo sapiens.

Substrate in data set [7]: O=C(O)CCCC(=O)C(=O)O
As to the kind of experiment: E1a-specific DCPIP reduction assay (Km). As to conditions: ThDP, Mg2+. In kind it is biochemical, Homo sapiens.

Chain of E2o di-domain (linker and part of core domain) (Homo sapiens) (P36957 68-219): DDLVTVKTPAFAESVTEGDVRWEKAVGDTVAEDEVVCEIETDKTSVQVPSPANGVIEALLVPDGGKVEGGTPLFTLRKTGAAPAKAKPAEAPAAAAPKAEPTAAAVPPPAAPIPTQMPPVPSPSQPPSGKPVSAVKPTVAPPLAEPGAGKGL

The Kd is a measure of binding affinity in units of concentration. Regarding “Arg715Cys E1a variant of human 2-oxoadipate dehydrogenase (enzyme)”, in data set [1], the Kd was found to be 1130 nM. The relative amount of E1a among the components co-purified as OADHc (band intensity in PAGE) in data set [2] and in data set [3] was 7.7% throughout.

For the molecule “E1a (2-oxoadipate dehydrogenase) (from UniProt Q96HY7)”, the Kd in data set [4] was 1120 nM.

With “human 2-oxoadipate dehydrogenase (E1a), wild type (enzyme)”, the relative amount of E1a among the components co-purified as OADHc (band intensity in PAGE) in data set [2] and in data set [3] was 46% each time.

B1: 2-oxoadipate dehydrogenase (E1a) (Homo sapiens) (protein)
chain: GYQTERGVYGYRPRKPESREPQGALERPPVDHGLARLVTVYCEHGHKAAKINPLFTGQALLENVPEIQALVQTLQGPFHTAGLLNMGKEEASLEEVLVYLNQIYCGQISIETSQLQSQDEKDWFAKRFEELQKETFTTEERKHLSKLMLESQEFDHFLATKFSTVKRYGGEGAESMMGFFHELLKMSAYSGITDVIIGMPHRGRLNLLTGLLQFPPELMFRKMRGLSEFPENFSATGDVLSHLTSSVDLYFGAHHPLHVTMLPNPSHLEAVNPVAVGKTRGRQQSRQDGDYSPDNSAQPGDRVICLQVHGDASFCGQGIVPETFTLSNLPHFRIGGSVHLIVNNQLGYTTPAERGRSSLYCSDIGKLVGCAIIHVNGDSPEEVVRATRLAFEYQRQFRKDVIIDLLCYRQWGHNELDEPFYTNPIMYKIIRARKSIPDTYAEHLIAGGLMTQEEVSEIKSSYYAKLNDHLNNMAHYRPPALNLQAHWQGLAQPEAQITTWSTGVPLDLLRFVGMKSVEVPRELQMHSHLLKTHVQSRMEKMMDGIKLDWATAEALALGSLLAQGFNVRLSGQDVGRGTFSQRHAIVVCQETDDTYIPLNHMDPNQKGFLEVSNSPLSEEAVLGFEYGMSIESPKLLPLWEAQFGDFFNGAQIIFDTFISGGEAKWLLQSGIVILLPHGYDGAGPDHSSCRIERFLQMCDSAEEGVDGDTVNMFVVHPTTPAQYFHLLRRQMVRNFRKPLIVASPKMLLRLPAAVSTLQEMAPGTTFNPVIGDSSVDPKKVKTLVFCSGKHFYSLVKQRESLGAKKHDFAIIRVEELCPFPLDSLQQEMSKYKHVKDHIWSQEEPQNMGPWSFVSPRFEKQLACKLRLVGRPPLPVPAVGIGTVHLHQHEDILAKTFA
notes: C-terminally His6-tagged E1a
For orientation: Km means the substrate concentration at which the rate is half of its maximum. For B1, the Km was found to be 4.9 µM in data set [5] and 37 µM in data set [6].

B2: 2-oxoadipate dehydrogenase (E1a) (Homo sapiens; R455Q) (protein)
chain: GYQTERGVYGYRPRKPESREPQGALERPPVDHGLARLVTVYCEHGHKAAKINPLFTGQALLENVPEIQALVQTLQGPFHTAGLLNMGKEEASLEEVLVYLNQIYCGQISIETSQLQSQDEKDWFAKRFEELQKETFTTEERKHLSKLMLESQEFDHFLATKFSTVKRYGGEGAESMMGFFHELLKMSAYSGITDVIIGMPHRGRLNLLTGLLQFPPELMFRKMRGLSEFPENFSATGDVLSHLTSSVDLYFGAHHPLHVTMLPNPSHLEAVNPVAVGKTRGRQQSRQDGDYSPDNSAQPGDRVICLQVHGDASFCGQGIVPETFTLSNLPHFRIGGSVHLIVNNQLGYTTPAERGRSSLYCSDIGKLVGCAIIHVNGDSPEEVVRATRLAFEYQRQFRKDVIIDLLCYRQWGHNELDEPFYTNPIMYKIIRAQKSIPDTYAEHLIAGGLMTQEEVSEIKSSYYAKLNDHLNNMAHYRPPALNLQAHWQGLAQPEAQITTWSTGVPLDLLRFVGMKSVEVPRELQMHSHLLKTHVQSRMEKMMDGIKLDWATAEALALGSLLAQGFNVRLSGQDVGRGTFSQRHAIVVCQETDDTYIPLNHMDPNQKGFLEVSNSPLSEEAVLGFEYGMSIESPKLLPLWEAQFGDFFNGAQIIFDTFISGGEAKWLLQSGIVILLPHGYDGAGPDHSSCRIERFLQMCDSAEEGVDGDTVNMFVVHPTTPAQYFHLLRRQMVRNFRKPLIVASPKMLLRLPAAVSTLQEMAPGTTFNPVIGDSSVDPKKVKTLVFCSGKHFYSLVKQRESLGAKKHDFAIIRVEELCPFPLDSLQQEMSKYKHVKDHIWSQEEPQNMGPWSFVSPRFEKQLACKLRLVGRPPLPVPAVGIGTVHLHQHEDILAKTFA
notes: C-terminally His6-tagged E1a variant
On to B2, for which the Km in data set [7] turned out to be 3.5 µM.

B3: 2-oxoadipate dehydrogenase (E1a) (Homo sapiens; Q305H) (protein)
chain: GYQTERGVYGYRPRKPESREPQGALERPPVDHGLARLVTVYCEHGHKAAKINPLFTGQALLENVPEIQALVQTLQGPFHTAGLLNMGKEEASLEEVLVYLNQIYCGQISIETSQLQSQDEKDWFAKRFEELQKETFTTEERKHLSKLMLESQEFDHFLATKFSTVKRYGGEGAESMMGFFHELLKMSAYSGITDVIIGMPHRGRLNLLTGLLQFPPELMFRKMRGLSEFPENFSATGDVLSHLTSSVDLYFGAHHPLHVTMLPNPSHLEAVNPVAVGKTRGRHQSRQDGDYSPDNSAQPGDRVICLQVHGDASFCGQGIVPETFTLSNLPHFRIGGSVHLIVNNQLGYTTPAERGRSSLYCSDIGKLVGCAIIHVNGDSPEEVVRATRLAFEYQRQFRKDVIIDLLCYRQWGHNELDEPFYTNPIMYKIIRARKSIPDTYAEHLIAGGLMTQEEVSEIKSSYYAKLNDHLNNMAHYRPPALNLQAHWQGLAQPEAQITTWSTGVPLDLLRFVGMKSVEVPRELQMHSHLLKTHVQSRMEKMMDGIKLDWATAEALALGSLLAQGFNVRLSGQDVGRGTFSQRHAIVVCQETDDTYIPLNHMDPNQKGFLEVSNSPLSEEAVLGFEYGMSIESPKLLPLWEAQFGDFFNGAQIIFDTFISGGEAKWLLQSGIVILLPHGYDGAGPDHSSCRIERFLQMCDSAEEGVDGDTVNMFVVHPTTPAQYFHLLRRQMVRNFRKPLIVASPKMLLRLPAAVSTLQEMAPGTTFNPVIGDSSVDPKKVKTLVFCSGKHFYSLVKQRESLGAKKHDFAIIRVEELCPFPLDSLQQEMSKYKHVKDHIWSQEEPQNMGPWSFVSPRFEKQLACKLRLVGRPPLPVPAVGIGTVHLHQHEDILAKTFA
notes: as for B2
For B3, the Km in data set [7] came to 5 µM.

B4: 2-oxoadipate dehydrogenase (E1a) (Homo sapiens; P773L) (protein)
chain: GYQTERGVYGYRPRKPESREPQGALERPPVDHGLARLVTVYCEHGHKAAKINPLFTGQALLENVPEIQALVQTLQGPFHTAGLLNMGKEEASLEEVLVYLNQIYCGQISIETSQLQSQDEKDWFAKRFEELQKETFTTEERKHLSKLMLESQEFDHFLATKFSTVKRYGGEGAESMMGFFHELLKMSAYSGITDVIIGMPHRGRLNLLTGLLQFPPELMFRKMRGLSEFPENFSATGDVLSHLTSSVDLYFGAHHPLHVTMLPNPSHLEAVNPVAVGKTRGRQQSRQDGDYSPDNSAQPGDRVICLQVHGDASFCGQGIVPETFTLSNLPHFRIGGSVHLIVNNQLGYTTPAERGRSSLYCSDIGKLVGCAIIHVNGDSPEEVVRATRLAFEYQRQFRKDVIIDLLCYRQWGHNELDEPFYTNPIMYKIIRARKSIPDTYAEHLIAGGLMTQEEVSEIKSSYYAKLNDHLNNMAHYRPPALNLQAHWQGLAQPEAQITTWSTGVPLDLLRFVGMKSVEVPRELQMHSHLLKTHVQSRMEKMMDGIKLDWATAEALALGSLLAQGFNVRLSGQDVGRGTFSQRHAIVVCQETDDTYIPLNHMDPNQKGFLEVSNSPLSEEAVLGFEYGMSIESPKLLPLWEAQFGDFFNGAQIIFDTFISGGEAKWLLQSGIVILLPHGYDGAGPDHSSCRIERFLQMCDSAEEGVDGDTVNMFVVHPTTPAQYFHLLRRQMVRNFRKPLIVASPKMLLRLLAAVSTLQEMAPGTTFNPVIGDSSVDPKKVKTLVFCSGKHFYSLVKQRESLGAKKHDFAIIRVEELCPFPLDSLQQEMSKYKHVKDHIWSQEEPQNMGPWSFVSPRFEKQLACKLRLVGRPPLPVPAVGIGTVHLHQHEDILAKTFA
Regarding B4, the Km in data set [7] is 6 µM.
